Measurements: publication PMC8307404, “Crystal Structure-Guided Design of Bisubstrate Inhibitors and Photoluminescent Probes for Protein Kinases of the PIM Family” (Molecules, 2021)
Square brackets hold non-standard residues; d marks the D form. Peptide text beside a SMILES is read from it. * marks the point of attachment. X3 = O=C(CCCCCNCc1nc2c(sc3cc(Br)cnc32)c(=O)[nH]1)*

Experiments:
Experiment in all cases: Kinase profiling (radiometric filter-binding)
Type in all cases: biochemical
HIPK3 = HIPK3 (Homo sapiens, UniProt Q9H422); conditions: HIPK3, 1 µM inhibitor; read-out: Residual activity, %
Method in brief: (§1)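 Radiometric filter-binding; human PKs; ATP ≤ KM per kinase; compound 1 µM final; readout = % residual activity vs no-inhibitor control.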

ABL = ABL (Homo sapiens, UniProt P00519); conditions: 1 µM inhibitor, read-out: Residual activity, %
Method in brief: as §1

YES1 = YES1 (Homo sapiens, UniProt P07947); conditions: YES1, 1 µM inhibitor; read-out: Residual activity, %
Method in brief: as §1

CLK2 = CLK2 (Homo sapiens, UniProt P49760); conditions: CLK2, 1 µM inhibitor; read-out: Residual activity, %
Method in brief: as §1

EPH-B3 = target: T1, EPH-B3 (Homo sapiens, UniProt P54753); conditions: EPH-B3, 1 µM inhibitor; read-out: Residual activity, %
T1 sequence (P54753 34-998): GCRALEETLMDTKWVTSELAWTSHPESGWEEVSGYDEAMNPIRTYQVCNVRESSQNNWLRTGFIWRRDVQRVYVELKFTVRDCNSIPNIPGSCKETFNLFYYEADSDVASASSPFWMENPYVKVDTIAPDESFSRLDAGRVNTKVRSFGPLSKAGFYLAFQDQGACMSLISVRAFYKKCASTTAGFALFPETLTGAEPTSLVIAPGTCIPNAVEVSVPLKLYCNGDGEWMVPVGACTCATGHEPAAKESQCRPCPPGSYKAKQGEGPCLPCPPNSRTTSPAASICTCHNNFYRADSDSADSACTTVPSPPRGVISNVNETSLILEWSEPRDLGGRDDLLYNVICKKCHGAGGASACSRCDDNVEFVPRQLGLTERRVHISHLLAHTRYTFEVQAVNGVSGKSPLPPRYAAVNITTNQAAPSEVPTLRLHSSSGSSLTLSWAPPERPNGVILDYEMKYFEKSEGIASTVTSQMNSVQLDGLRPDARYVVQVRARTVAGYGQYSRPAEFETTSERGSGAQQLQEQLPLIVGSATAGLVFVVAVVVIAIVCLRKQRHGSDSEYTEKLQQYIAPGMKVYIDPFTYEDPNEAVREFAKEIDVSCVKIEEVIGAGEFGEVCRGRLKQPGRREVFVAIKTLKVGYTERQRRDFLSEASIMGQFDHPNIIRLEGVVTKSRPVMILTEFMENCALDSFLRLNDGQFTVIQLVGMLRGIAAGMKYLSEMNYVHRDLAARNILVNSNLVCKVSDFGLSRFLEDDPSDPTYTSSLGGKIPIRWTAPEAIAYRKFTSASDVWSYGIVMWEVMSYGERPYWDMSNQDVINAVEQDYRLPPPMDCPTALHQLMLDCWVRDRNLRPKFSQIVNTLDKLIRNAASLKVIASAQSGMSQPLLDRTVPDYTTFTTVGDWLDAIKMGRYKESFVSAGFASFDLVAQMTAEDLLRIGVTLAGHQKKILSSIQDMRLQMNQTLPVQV
Method in brief: as §1

PDK1 = target: T2, PDK1 (Homo sapiens, UniProt O15530); conditions: PDK1, 1 µM inhibitor; read-out: Residual activity, %
T2 sequence (O15530 1-556): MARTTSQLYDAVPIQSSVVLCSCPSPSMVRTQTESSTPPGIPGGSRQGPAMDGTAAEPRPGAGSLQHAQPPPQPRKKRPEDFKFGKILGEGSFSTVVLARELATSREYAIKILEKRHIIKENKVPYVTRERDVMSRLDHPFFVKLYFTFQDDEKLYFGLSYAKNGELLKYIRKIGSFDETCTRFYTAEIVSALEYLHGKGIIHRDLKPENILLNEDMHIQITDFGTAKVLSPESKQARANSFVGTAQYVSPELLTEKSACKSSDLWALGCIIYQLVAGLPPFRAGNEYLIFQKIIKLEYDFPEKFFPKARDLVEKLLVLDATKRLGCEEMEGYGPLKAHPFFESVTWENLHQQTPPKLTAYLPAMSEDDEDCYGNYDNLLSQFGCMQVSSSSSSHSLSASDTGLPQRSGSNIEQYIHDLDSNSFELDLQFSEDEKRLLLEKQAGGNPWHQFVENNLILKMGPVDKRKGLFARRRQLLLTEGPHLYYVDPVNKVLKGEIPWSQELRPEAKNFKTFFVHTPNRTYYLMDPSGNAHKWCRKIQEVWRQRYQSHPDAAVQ
Method in brief: as §1

Sequence of YES1 (P07947 whole entry): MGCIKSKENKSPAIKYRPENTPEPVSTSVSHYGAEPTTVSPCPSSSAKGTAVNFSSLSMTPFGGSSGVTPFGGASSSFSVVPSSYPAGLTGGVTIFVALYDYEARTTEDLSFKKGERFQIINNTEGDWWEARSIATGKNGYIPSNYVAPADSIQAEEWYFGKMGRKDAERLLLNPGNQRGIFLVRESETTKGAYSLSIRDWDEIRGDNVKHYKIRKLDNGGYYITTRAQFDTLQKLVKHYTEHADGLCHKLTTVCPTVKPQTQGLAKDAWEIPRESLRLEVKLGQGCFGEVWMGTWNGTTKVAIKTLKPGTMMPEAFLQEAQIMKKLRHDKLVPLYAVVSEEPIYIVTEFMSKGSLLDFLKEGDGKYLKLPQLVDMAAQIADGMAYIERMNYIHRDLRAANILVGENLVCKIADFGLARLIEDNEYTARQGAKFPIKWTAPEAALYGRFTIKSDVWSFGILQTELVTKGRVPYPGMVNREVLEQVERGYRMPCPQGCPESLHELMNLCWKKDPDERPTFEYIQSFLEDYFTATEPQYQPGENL
Sequence of ABL (P00519 whole entry): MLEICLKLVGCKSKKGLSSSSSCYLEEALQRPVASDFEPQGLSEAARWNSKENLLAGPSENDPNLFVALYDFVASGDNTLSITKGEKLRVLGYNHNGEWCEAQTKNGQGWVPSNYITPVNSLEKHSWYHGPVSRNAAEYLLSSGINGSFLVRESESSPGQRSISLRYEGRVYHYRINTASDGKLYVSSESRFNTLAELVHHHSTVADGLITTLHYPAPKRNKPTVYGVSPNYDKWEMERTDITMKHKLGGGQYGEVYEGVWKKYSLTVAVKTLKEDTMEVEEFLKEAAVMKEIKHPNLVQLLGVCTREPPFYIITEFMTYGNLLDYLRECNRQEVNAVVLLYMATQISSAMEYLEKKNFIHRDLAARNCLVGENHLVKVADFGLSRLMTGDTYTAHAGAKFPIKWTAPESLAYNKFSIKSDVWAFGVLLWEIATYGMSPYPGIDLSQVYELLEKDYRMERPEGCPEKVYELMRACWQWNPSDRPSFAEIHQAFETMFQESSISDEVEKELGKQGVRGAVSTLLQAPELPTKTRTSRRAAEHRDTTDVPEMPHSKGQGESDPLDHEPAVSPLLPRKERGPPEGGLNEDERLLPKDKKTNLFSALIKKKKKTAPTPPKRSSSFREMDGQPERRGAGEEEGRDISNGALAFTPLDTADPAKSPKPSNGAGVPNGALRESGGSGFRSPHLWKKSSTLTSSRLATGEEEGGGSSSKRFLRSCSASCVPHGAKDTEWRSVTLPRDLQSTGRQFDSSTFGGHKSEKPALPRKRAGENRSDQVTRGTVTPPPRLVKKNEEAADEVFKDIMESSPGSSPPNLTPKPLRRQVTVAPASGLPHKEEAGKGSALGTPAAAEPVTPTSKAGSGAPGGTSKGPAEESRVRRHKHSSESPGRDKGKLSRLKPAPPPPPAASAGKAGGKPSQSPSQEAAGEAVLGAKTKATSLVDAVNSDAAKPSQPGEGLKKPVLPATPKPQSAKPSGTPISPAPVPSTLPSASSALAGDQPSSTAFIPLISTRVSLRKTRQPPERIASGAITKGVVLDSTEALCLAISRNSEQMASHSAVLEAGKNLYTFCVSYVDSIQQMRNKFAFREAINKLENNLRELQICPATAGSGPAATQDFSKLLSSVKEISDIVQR
Sequence of CLK2 (P49760 whole entry): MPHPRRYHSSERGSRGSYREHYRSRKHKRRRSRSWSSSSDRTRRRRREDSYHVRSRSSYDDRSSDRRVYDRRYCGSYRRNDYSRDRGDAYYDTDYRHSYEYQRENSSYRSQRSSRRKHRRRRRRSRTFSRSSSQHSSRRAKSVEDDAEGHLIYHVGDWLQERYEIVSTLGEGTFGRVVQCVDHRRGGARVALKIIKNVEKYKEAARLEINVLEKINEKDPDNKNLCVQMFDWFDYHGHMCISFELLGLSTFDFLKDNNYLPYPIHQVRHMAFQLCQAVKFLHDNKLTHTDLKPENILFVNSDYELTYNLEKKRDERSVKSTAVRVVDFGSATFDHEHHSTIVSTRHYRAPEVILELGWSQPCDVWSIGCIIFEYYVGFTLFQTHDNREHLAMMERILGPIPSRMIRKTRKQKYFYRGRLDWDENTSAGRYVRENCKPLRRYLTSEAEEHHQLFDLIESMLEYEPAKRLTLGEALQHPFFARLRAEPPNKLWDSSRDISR
Sequence of HIPK3 (Q9H422 whole entry): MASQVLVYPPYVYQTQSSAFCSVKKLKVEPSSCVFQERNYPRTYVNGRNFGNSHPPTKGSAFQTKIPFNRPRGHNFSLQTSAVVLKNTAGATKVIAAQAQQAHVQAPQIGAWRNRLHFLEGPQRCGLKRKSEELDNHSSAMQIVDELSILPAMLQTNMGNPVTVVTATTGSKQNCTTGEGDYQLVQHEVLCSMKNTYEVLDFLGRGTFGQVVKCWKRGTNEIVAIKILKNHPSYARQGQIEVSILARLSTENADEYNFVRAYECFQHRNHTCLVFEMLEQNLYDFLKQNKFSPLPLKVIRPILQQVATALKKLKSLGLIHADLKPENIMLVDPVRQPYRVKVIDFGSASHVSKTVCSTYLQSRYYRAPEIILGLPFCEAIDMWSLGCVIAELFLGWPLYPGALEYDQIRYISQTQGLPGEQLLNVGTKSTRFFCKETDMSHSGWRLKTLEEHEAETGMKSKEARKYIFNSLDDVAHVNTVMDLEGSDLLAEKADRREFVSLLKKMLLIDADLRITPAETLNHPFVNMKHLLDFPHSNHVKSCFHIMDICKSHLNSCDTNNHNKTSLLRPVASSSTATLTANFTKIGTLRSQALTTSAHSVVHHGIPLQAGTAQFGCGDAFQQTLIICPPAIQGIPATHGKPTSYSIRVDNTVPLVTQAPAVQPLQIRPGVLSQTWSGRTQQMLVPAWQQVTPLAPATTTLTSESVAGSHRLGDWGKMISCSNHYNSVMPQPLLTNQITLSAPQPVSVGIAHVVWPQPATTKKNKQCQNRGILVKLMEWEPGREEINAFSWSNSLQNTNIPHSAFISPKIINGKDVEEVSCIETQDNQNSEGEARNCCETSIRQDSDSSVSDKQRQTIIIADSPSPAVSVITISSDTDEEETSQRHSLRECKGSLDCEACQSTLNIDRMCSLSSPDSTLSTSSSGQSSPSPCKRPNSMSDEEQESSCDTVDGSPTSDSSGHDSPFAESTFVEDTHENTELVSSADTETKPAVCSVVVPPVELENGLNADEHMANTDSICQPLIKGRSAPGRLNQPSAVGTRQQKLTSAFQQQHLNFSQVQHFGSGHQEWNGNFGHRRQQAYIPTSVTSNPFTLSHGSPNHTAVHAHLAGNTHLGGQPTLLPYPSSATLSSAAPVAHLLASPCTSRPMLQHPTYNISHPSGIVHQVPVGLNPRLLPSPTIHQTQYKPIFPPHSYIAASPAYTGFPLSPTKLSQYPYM

Structure (SMILES)	remaining activity at 1 µM (HIPK3)	remaining activity at 1 µM (ABL)	remaining activity at 1 µM (YES1)	remaining activity at 1 µM (CLK2)	remaining activity at 1 µM (EPH-B3)	remaining activity at 1 µM (PDK1)
N=C(N)NCCC[C@@H](NC(=O)CCCCCNC(=O)Cn1cnc2c(I)c(I)c(I)c(I)c21)C(=O)N[C@H](CCCNC(=N)N)C(=O)N[C@H](CCCNC(=N)N)C(=O)N[C@H](CCCNC(=N)N)C(=O)N[C@H](CCCNC(=N)N)C(=O)N[C@H](CCCNC(=N)N)C(=O)N[C@H](CCCCN)C(N)=O [ARC-3125, TIBI-CH2-C(=O)-Ahx-(D-Arg)6-D-Lys-NH2]	21%	106%	104 ± 8%	-1 ± 5%	104 ± 3%	123 ± 7%
N=C(N)NCCC[C@@H](NC(=O)CNC(=O)[C@@H](CCCNC(=N)N)NC(=O)[C@@H](CCCNC(=N)N)NC(=O)CCCCCCCNCc1nc2c(sc3cc(Br)cnc32)c(=O)[nH]1)C(=O)N[C@H](CCCCN)C(N)=O [Compound 1, BPTP-Aoc-(D-Arg)2-Gly-D-Arg-D-Lys-NH2]	116 ± 15%	94 ± 8%	110%	97%	107 ± 26%	116 ± 3%
N=C(N)NCCC[C@@H](NC(=O)CCCCCNCc1nc2c(sc3cc(Br)cnc32)c(=O)[nH]1)C(=O)N[C@H](CCCNC(=N)N)C(=O)N[C@H](CCCNC(=N)N)C(=O)N[C@H](CCCNC(=N)N)C(=O)N[C@H](CCCNC(=N)N)C(=O)N[C@H](CCCNC(=N)N)C(=O)N[C@H](CCCCN)C(N)=O [ARC-3126, BPTP-Ahx-(D-Arg)6-D-Lys-NH2] (X3-[dR][dR][dR][dR][dR][dR][dK]-NH2)	93 ± 2%	116 ± 5%	98 ± 12%	57 ± 15%	94 ± 10%	111 ± 13%
N=C(N)NCCC[C@@H](NC(=O)CNC(=O)[C@@H](CCCNC(=N)N)NC(=O)[C@@H](CCCNC(=N)N)NC(=O)Cn1cc(CNCc2nc3c(sc4ccc(Br)cc43)c(=O)[nH]2)nn1)C(=O)N[C@H](CCCCN)C(N)=O [Compound 3, BBTP-Amt-(D-Arg)2-Gly-D-Arg-D-Lys-NH2]	57 ± 7%	91 ± 12%	124 ± 1%	30 ± 1%	79 ± 3%	118 ± 16%
N=C(N)NCCC[C@@H](NC(=O)CNC(=O)[C@@H](CCCNC(=N)N)NC(=O)[C@@H](CCCNC(=N)N)NC(=O)CCCCCCCNCc1nc2c(sc3ccc(Br)cc32)c(=O)[nH]1)C(=O)N[C@H](CCCCN)C(N)=O [Compound 2, BBTP-Aoc-(D-Arg)2-Gly-D-Arg-D-Lys-NH2]	72 ± 12%	89 ± 5%	104 ± 12%	24%	106 ± 2%	121 ± 7%
